T1: human-NKP30-His (human, UniProt O14931 19-138)
T1 construct: Bought protein; also called NKP30 protein; NKP30-his protein; not shown: His tag
T1 sequence (looked up): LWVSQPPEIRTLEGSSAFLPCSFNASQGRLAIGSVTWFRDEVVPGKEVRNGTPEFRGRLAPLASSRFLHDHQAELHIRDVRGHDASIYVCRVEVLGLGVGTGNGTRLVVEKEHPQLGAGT

B1: constructed antibody B23 (bispecific antibody, human IgG4 S228P, kappa)
heavy: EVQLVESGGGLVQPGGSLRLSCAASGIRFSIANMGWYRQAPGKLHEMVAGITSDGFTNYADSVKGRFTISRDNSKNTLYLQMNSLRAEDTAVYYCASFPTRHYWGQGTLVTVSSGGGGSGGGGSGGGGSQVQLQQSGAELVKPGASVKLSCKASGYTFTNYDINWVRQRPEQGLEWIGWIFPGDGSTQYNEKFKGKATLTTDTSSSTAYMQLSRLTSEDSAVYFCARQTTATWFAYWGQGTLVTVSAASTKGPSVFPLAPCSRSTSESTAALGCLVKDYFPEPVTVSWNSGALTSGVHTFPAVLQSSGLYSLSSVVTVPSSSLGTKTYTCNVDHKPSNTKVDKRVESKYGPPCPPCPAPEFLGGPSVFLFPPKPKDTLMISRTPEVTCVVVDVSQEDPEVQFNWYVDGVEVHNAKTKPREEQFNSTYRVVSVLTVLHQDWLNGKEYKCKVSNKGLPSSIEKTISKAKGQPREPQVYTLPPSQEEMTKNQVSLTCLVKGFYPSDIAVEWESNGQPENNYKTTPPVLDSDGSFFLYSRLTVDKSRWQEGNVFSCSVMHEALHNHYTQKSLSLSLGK
light: DIVMTQSPATLSVTPGDRVSLSCRASQSISDYLHWYQQKSHESPRLLIKYASQSISGIPSRFSGSGSGSDFTLSINSVEPEDVGVYYCQNGHSFPLTFGAGTKLELKRTVAAPSVFIFPPSDEQLKSGTASVVCLLNNFYPREAKVQWKVDNALQSGNSQESVTEQDSKDSTYSLSSTLTLSKADYEKHKVYACEVTHQGLSSPVTKSFNRGEC
notes: IgG4 subtype
B2: constructed antibody A25 (bispecific antibody, human IgG1, kappa)
heavy: not shown
light: B1 light
notes: IgG1 subtype
B3: constructed antibody A24 (bispecific antibody, human IgG1, kappa)
heavy: not shown
light: B1 light
notes: IgG1 subtype
B4: constructed antibody D28 (bispecific antibody, human IgG4 S228P, kappa)
heavy: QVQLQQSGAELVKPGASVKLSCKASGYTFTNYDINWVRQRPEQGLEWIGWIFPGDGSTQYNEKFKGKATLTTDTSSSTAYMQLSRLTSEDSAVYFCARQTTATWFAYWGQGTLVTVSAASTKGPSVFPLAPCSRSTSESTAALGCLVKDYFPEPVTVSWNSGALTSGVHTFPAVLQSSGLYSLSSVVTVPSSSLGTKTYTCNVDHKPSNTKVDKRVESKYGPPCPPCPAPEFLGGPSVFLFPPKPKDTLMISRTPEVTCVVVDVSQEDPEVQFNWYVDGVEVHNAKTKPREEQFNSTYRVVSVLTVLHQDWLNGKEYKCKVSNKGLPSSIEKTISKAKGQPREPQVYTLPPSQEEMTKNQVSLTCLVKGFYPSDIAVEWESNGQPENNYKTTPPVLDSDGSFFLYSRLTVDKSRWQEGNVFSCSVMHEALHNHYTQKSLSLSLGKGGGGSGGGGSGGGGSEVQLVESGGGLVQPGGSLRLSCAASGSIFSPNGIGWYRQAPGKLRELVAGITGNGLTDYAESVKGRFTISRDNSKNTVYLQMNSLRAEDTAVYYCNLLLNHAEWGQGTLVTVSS
light: B1 light
notes: IgG4 subtype

Molecular target: T1, human-NKP30-His
Test: ELISA, human-NKP30-His coated
Procedure: The human-NKP30-His (purchased from ACRO Biosystems) was diluted to 0.5 μg/mL using pH 7.4 PBS buffer and 100 μL per well was added to a 96-well ELISA plate and coated overnight at 4° C. The plates were closed with 1% BSA blocking solution for 1 hour and washed 3 times with PBST. […] The plate was washed 3 times with PBST and HRP-labelled goat anti-human IgG Fc was diluted 1:20000 with sample diluent, 100 μL for each well was added and incubated for 1 h at room temperature. After washing the plate 4 times with PBST, 100 μL of TMB substrate was added into each well and incubated for 10 min at room temperature, avoiding light. Then 100 μL of 1 M HCl was added into each well to terminate the colour development reaction. The absorbance value of each well in the 96-well plate was measured on a multifunctional enzyme standard at a wavelength of 450 nm and a reference wavelength of 570 nm, absorbance value (OD) per well=OD_{450 nm}−OD_{570 nm}. The concentration of the constructed antibody was logarithmically used as the horizontal coordinate, the measured absorbance value per well as the vertical coordinate, and the Sigmoidal dose-response (Variable Slope) method (Graph Pad Prism Software, Graph Pad Software, San Diego, California) was selected for non-linear regression to obtain the binding curve between the target antibody and NKP30 protein.

Binding result, binds:
B1
B2
B3
B4
